Assay results from publication PMC10397247.

Legend:
Assay in all cases: two-hybrid library CCmax;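 further: natural log of median RNA to DNA barcode read ratio; higher means stronger binding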
[1] = molecular target: T1, 4H1552-AA
T1 chain: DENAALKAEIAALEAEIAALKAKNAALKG

[2] = molecular target: T2, 4H1636-AA; conditions: mean of both orientations
T2 chain: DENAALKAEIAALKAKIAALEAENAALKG

[3] = molecular target: T3, 4H1867-AA; conditions: mean of both orientations
T3 chain: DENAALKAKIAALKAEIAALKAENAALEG

[4] = molecular target: T4, 4H2078-AA; conditions: mean of both orientations
T4 chain: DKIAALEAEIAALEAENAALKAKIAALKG

[5] = molecular target: T5, 4H2151-AA; conditions: mean of both orientations
T5 chain: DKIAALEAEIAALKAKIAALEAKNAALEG

[6] = molecular target: T6, 4H2165-AA; conditions: mean of both orientations
T6 chain: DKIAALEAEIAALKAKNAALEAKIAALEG

[7] = molecular target: T7, 4H2190-AA; conditions: mean of both orientations
T7 chain: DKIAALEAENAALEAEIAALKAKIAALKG

[8] = molecular target: T8, 4H2277-AA; conditions: mean of both orientations
T8 chain: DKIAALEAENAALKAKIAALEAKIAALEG

[9] = molecular target: T9, 4H234-AA; conditions: mean of both orientations
T9 chain: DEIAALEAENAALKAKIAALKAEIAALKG

[10] = molecular target: T10, 4H2354-AA; conditions: mean of both orientations
T10 chain: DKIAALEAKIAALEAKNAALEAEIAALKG

[11] = molecular target: T11, 4H2393-AA; conditions: mean of both orientations
T11 chain: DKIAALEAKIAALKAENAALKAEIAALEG

[12] = molecular target: T12, 4H2466-AA; conditions: mean of both orientations
T12 chain: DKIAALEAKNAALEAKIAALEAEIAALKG

[13] = molecular target: T13, 4H2505-AA; conditions: mean of both orientations
T13 chain: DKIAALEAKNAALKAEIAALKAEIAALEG

[14] = molecular target: T14, 4H2575-AA; conditions: mean of both orientations
T14 chain: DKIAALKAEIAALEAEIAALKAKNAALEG

[15] = molecular target: T15, 4H2617-AA; conditions: mean of both orientations
T15 chain: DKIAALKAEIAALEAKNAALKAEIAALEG

[16] = molecular target: T16, 4H2642-AA; conditions: mean of both orientations
T16 chain: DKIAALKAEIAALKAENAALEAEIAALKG

[17] = molecular target: T17, 4H2729-AA; conditions: mean of both orientations
T17 chain: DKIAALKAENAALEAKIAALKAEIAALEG

[18] = molecular target: T18, 4H2754-AA; conditions: mean of both orientations
T18 chain: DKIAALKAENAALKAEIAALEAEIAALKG

[19] = molecular target: T19, 4H2837-AA; conditions: mean of both orientations
T19 chain: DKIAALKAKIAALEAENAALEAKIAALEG

[20] = molecular target: T20, 4H2883-AA; conditions: mean of both orientations
T20 chain: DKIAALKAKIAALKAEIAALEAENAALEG

[21] = molecular target: T21, 4H2944-AA; conditions: mean of both orientations
T21 chain: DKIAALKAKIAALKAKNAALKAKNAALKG

[22] = molecular target: T22, 4H2949-AA; conditions: mean of both orientations
T22 chain: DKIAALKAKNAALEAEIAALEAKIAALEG

[23] = molecular target: T23, 4H3112-AA; conditions: mean of both orientations
T23 chain: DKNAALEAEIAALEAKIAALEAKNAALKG

[24] = molecular target: T24, 4H317-AA; conditions: mean of both orientations
T24 chain: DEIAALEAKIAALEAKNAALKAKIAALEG

[25] = molecular target: T25, 4H3343-AA; conditions: mean of both orientations
T25 chain: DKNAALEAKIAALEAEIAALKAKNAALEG

[26] = molecular target: T26, 4H335-AA
T26 chain: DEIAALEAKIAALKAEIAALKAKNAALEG

[27] = molecular target: T27, 4H342-AA; conditions: mean of both orientations
T27 chain: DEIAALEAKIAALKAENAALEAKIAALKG

[28] = molecular target: T28, 4H3427-AA; conditions: mean of both orientations
T28 chain: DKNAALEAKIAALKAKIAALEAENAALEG

[29] = molecular target: T29, 4H3606-AA; conditions: mean of both orientations
T29 chain: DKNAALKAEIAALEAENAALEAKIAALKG

[30] = molecular target: T30, 4H3627-AA; conditions: mean of both orientations
T30 chain: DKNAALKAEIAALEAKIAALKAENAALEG

[31] = molecular target: T31, 4H3655-AA; conditions: mean of both orientations
T31 chain: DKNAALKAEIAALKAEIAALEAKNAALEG

[32] = molecular target: T32, 4H3844-AA; conditions: mean of both orientations
T32 chain: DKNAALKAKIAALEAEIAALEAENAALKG

[33] = molecular target: T33, 4H3921-AA; conditions: mean of both orientations
T33 chain: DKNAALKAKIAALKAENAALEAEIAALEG

[34] = molecular target: T34, 4H429-AA; conditions: mean of both orientations
T34 chain: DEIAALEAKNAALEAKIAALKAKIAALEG

[35] = molecular target: T35, 4H454-AA; conditions: mean of both orientations
T35 chain: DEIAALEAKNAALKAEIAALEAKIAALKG

[36] = molecular target: T36, 4H48-AA; conditions: mean of both orientations
T36 chain: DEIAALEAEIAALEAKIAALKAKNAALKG

[37] = molecular target: T37, 4H566-AA; conditions: mean of both orientations
T37 chain: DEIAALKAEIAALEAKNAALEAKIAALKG

[38] = molecular target: T38, 4H605-AA; conditions: mean of both orientations
T38 chain: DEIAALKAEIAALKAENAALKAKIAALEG

[39] = molecular target: T39, 4H678-AA; conditions: mean of both orientations
T39 chain: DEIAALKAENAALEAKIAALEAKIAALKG

[40] = molecular target: T40, 4H717-AA; conditions: mean of both orientations
T40 chain: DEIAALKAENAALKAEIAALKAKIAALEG

[41] = molecular target: T41, 4H780-AA; conditions: mean of both orientations
T41 chain: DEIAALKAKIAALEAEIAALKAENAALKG

[42] = molecular target: T42, 4H794-AA; conditions: mean of both orientations
T42 chain: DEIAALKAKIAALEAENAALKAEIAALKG

[43] = molecular target: T43, 4H881-AA; conditions: mean of both orientations
T43 chain: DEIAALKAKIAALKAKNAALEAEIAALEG

[44] = molecular target: T44, 4H906-AA; conditions: mean of both orientations
T44 chain: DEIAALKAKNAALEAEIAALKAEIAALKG

[45] = molecular target: T45, 4H993-AA; conditions: mean of both orientations
T45 chain: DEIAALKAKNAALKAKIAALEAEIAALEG

[46] = molecular target: T46, APC2474-AA
T46 chain: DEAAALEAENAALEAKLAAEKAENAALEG

[47] = molecular target: T47, APC2543-AA; conditions: mean of both orientations
T47 chain: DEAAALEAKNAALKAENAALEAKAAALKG

[48] = molecular target: T48, APC2556-AA; conditions: mean of both orientations
T48 chain: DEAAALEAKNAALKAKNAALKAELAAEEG

[49] = molecular target: T49, APC2724-AA; conditions: mean of both orientations
T49 chain: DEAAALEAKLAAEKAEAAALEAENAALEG

[50] = molecular target: T50, APC2811-AA; conditions: mean of both orientations
T50 chain: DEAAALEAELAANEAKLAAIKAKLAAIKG

[51] = molecular target: T51, APC2981-AA; conditions: mean of both orientations
T51 chain: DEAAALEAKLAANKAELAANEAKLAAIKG

[52] = molecular target: T52, APC3265-AA; conditions: mean of both orientations
T52 chain: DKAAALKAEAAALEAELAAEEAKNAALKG

[53] = molecular target: T53, APC3323-AA; conditions: mean of both orientations
T53 chain: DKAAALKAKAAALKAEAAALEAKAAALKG

[54] = molecular target: T54, APC3354-AA; conditions: mean of both orientations
T54 chain: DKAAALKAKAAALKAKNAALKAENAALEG

[55] = molecular target: T55, APC3881-AA; conditions: mean of both orientations
T55 chain: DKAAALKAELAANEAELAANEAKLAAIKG

[56] = molecular target: T56, APC4100-AA; conditions: mean of both orientations
T56 chain: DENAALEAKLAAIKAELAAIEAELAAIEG

[57] = molecular target: T57, APC4336-AA; conditions: mean of both orientations
T57 chain: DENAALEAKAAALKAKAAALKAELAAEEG

[58] = molecular target: T58, APC5009-AA; conditions: mean of both orientations
T58 chain: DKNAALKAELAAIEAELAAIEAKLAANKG

[59] = molecular target: T59, APC542-AA; conditions: mean of both orientations
T59 chain: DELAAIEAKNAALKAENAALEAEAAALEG

[60] = molecular target: T60, APC5531-AA; conditions: mean of both orientations
T60 chain: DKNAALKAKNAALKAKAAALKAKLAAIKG

[61] = molecular target: T61, APC6088-AA; conditions: mean of both orientations
T61 chain: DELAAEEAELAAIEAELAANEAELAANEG

[62] = molecular target: T62, APC7524-AA; conditions: mean of both orientations
T62 chain: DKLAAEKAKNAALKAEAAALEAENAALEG

[63] = molecular target: T63, APC8401-AA; conditions: mean of both orientations
T63 chain: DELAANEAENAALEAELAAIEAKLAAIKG

[64] = molecular target: T64, APC8516-AA; conditions: mean of both orientations
T64 chain: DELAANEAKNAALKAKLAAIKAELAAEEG

[65] = molecular target: T65, APC9141-AA; conditions: mean of both orientations
T65 chain: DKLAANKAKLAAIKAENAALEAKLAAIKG

[66] = molecular target: T66, APC9182-AA; conditions: mean of both orientations
T66 chain: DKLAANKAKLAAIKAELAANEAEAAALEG

[67] = molecular target: T67, APC9291-AA; conditions: mean of both orientations
T67 chain: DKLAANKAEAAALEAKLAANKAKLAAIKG

[68] = molecular target: T68, APC9806-AA; conditions: mean of both orientations
T68 chain: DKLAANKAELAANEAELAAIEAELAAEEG

DENAALKAEIAALEAEIAALKAKNAALKG [4H1552-AA] gave an interaction score [1] of 0.838, an interaction score [2] of 0.254 and an interaction score [3] of 2.28. The interaction score [4] was -0.958, the interaction score [5] was -0.598 and the interaction score [6] was -1.44. It also gave an interaction score [7] of -0.831, an interaction score [8] of -1.3 and an interaction score [9] of 1.6. The interaction score [10] was -1.41, the interaction score [11] was -1.36 and the interaction score [12] was -1.4. It also gave an interaction score [13] of -0.681, an interaction score [14] of -0.206 and an interaction score [15] of -0.622. The interaction score [16] was 0.755, the interaction score [17] was -0.018 and the interaction score [18] was -0.498. For the same binder, the interaction score [19] was -0.547, the interaction score [20] was 2.2 and the interaction score [21] was -1.04. It also gave an interaction score [22] of -1.42, an interaction score [23] of -0.246 and an interaction score [24] of 0.795. It also gave an interaction score [25] of 0.455, an interaction score [26] of 1.76 and an interaction score [27] of -0.367. For the same binder, the interaction score [28] was 1.64, the interaction score [29] was -0.722 and the interaction score [30] was 1.45. It also gave an interaction score [31] of 1.01, an interaction score [32] of 1.43 and an interaction score [33] of -0.743. It also gave an interaction score [34] of -0.746, an interaction score [35] of -0.754 and an interaction score [36] of 0.191. It also gave an interaction score [37] of -0.817, an interaction score [38] of -1.23 and an interaction score [39] of -0.931. It also gave an interaction score [40] of -0.949, an interaction score [41] of 0.0206 and an interaction score [42] of -1.55. For the same binder, the interaction score [43] was -0.939, the interaction score [44] was -1.18 and the interaction score [45] was -0.53.

In the case of DEAAALEAENAALEAKLAAEKAENAALEG [APC2474-AA], the interaction score [46] is reported as -1.69, the interaction score [47] is reported as -1.61 and the interaction score [48] is reported as -1.49. The interaction score [49] was -1.93, the interaction score [50] was -1.58 and the interaction score [51] was -1.45. For the same binder, the interaction score [52] was -1.52, the interaction score [53] was -1.45 and the interaction score [54] was -1.35. For the same binder, the interaction score [55] was -1.83, the interaction score [56] was -1.97 and the interaction score [57] was -1.67. It also gave an interaction score [58] of -1.39, an interaction score [59] of -1.4 and an interaction score [60] of -1.71. The interaction score [61] was -1.54, the interaction score [62] was -2.27 and the interaction score [63] was -1.53. The interaction score [64] was -1.93, the interaction score [65] was -2.1 and the interaction score [66] was -1.69. It also gave an interaction score [67] of -1.71 and an interaction score [68] of -1.64.
